According to patent US20160333065A1 (ACADEMISCH ZIEKENHUIS LEIDEN H O D N LUMC, published 2016):
Values belong to the binder of their own block, whether it stands above or below them.

Experiments:
HLA-A1 (A*0101) = target: T1, HLA-A1 (A*0101) (human); assay: cellular competition binding assay on acid-stripped B-LCL CAA, flow cytometry; competitor Fl-labeled reference peptide YLEPAC(Fl)AKY
T1 construct: MHC class I molecule on mild-acid-stripped EBV-transformed B cells (CAA)

HLA-A3 (A*0301) = target: T2, HLA-A3 (A*0301) (human); assay: cellular competition binding assay on acid-stripped B-LCL EKR, flow cytometry; competitor Fl-labeled reference peptide KVFPC(Fl)ALINK
T2 construct: MHC class I molecule on mild-acid-stripped EBV-transformed B cells (EKR)

HLA-B60 (B*4001) [1] = target: T3, HLA-B60 (B*4001) (human); assay: cellular competition binding assay on acid-stripped B-LCL DKB, flow cytometry; competitor Fl-labeled reference peptide KESTC(Fl)HLVL
T3 construct: MHC class I molecule on mild-acid-stripped EBV-transformed B cells (DKB)

HLA-B8 (B*0801) [2] = target: T4, HLA-B8 (B*0801) (human); assay: competition vs FLRGRAC(FI)GL on stripped B-LCL, FACS
T4 construct: HLA class I on acid-stripped EBV-transformed B cells (B-LCL)

HLA-B8 (B*0801) [3] = target: T5, HLA-B8 (B*0801) (human); assay: cellular competition binding assay on acid-stripped B-LCL Vavy, flow cytometry; competitor Fl-labeled reference peptide FLRGRAC(Fl)GL
T5 construct: MHC class I molecule on mild-acid-stripped EBV-transformed B cells (Vavy)

HLA-B7 (B*0702) [4] = target: T6, HLA-B7 (B*0702) (human); assay: cell competition vs APAPAPC(FI)WPL, stripped JY B-LCL, FACS
T6 construct: Acid-stripped B-LCL

HLA-B8 (B*0801) [5] = target: T7, HLA-B8 (B*0801) (human); assay: cell competition vs FLRGRAC(FI)GL, stripped Vavy B-LCL, FACS
T7 construct: Acid-stripped B-LCL

HLA-B62 (B*1501) = target: T8, HLA-B62 (B*1501) (human); assay: cellular competition binding assay on acid-stripped B-LCL BSM, flow cytometry; competitor Fl-labeled reference peptide YLGEFSC(Fl)TY
T8 construct: MHC class I molecule on mild-acid-stripped EBV-transformed B cells (BSM)

HLA-B61 (B*4002) = target: T9, HLA-B61 (B*4002) (human); assay: competition vs GEFGGC(FI)GSV on stripped B-LCL, FACS
T9 construct: HLA class I on acid-stripped EBV-transformed B cells (B-LCL)

HLA-B60 (B*4001) [6] = target: T10, HLA-B60 (B*4001) (human); assay: competition vs KESTC(FI)HLVL on stripped B-LCL, FACS
T10 construct: HLA class I on acid-stripped EBV-transformed B cells (B-LCL)

HLA-B35 (B*3501) = target: T11, HLA-B35 (B*3501) (human); assay: cellular competition binding assay on acid-stripped B-LCL BVR, flow cytometry; competitor Fl-labeled reference peptide NPDIVC(Fl)YQY
T11 construct: MHC class I molecule on mild-acid-stripped EBV-transformed B cells (BVR)

HLA-B7 (B*0702) [7] = target: T12, HLA-B7 (B*0702) (human); assay: competition vs APAPAPC(FI)WPL on stripped B-LCL, FACS
T12 construct: HLA class I on acid-stripped EBV-transformed B cells (B-LCL)

IC50 (HLA-A1 (A*0101)): 2000 nM
Binder: GTLHLERLAY [PRAME 453-462 GTLHLERLAY]

IC50 (HLA-A3 (A*0301)): 1000 nM
Binder: RLAYLHARLR [PRAME 459-468 RLAYLHARLR]

IC50 (HLA-B60 (B*4001) [1]): < 1000 nM
Binder: YEDIHGTLHL [PRAME 448-457 YEDIHGTLHL]

IC50 (HLA-B8 (B*0801) [2]): < 1000 nM
Binder: INLRRLLL [PRAME 260-267 INLRRLLL]

IC50 (HLA-A1 (A*0101)): < 1000 nM
Binder: LSNLTHVLY [PRAME 433-441 …]

IC50 (HLA-B8 (B*0801) [3]): < 1000 nM
Binder: YLHARLREL [PRAME 462-470 YLHARLREL]

IC50 (HLA-B8 (B*0801) [2]): < 1000 nM
Binder: MINLRRLL [PRAME 259-266 MINLRRLL]

IC50 (HLA-B7 (B*0702) [4]): < 1000 nM | IC50 (HLA-B8 (B*0801) [5]): < 1000 nM
Binder: RPRRWKLQVL [PRAME peptide RPRRWKLQVL]

IC50 (HLA-B62 (B*1501)): 1660 nM
Binder: VLYPVPLESY [PRAME 439-448 VLYPVPLESY]

IC50 (HLA-B8 (B*0801) [2]): 1670 nM
Binder: QMINLRRLLL [PRAME 258-267 QMINLRRLLL]

IC50 (HLA-B61 (B*4002)): < 1000 nM | IC50 (HLA-B60 (B*4001) [6]): 1550 nM
Binder: DEALAIAAL [PRAME 37-45 DEALAIAAL]

IC50 (HLA-B35 (B*3501)): 320 nM
Binder: EPILCPCFM [PRAME 499-507 EPILCPCFM]

IC50 (HLA-B61 (B*4002)): < 1000 nM | IC50 (HLA-B60 (B*4001) [6]): 1480 nM
Binder: RELFPPLFM [PRAME 50-58 RELFPPLFM]

IC50 (HLA-B8 (B*0801) [2]): < 1000 nM | IC50 (HLA-B7 (B*0702) [7]): < 1000 nM
Binder: RPRRWKLQVL [PRAME 113-122 RPRRWKLQVL]

IC50 (HLA-B60 (B*4001) [6]): 2910 nM
Binder: KDEALAIAAL [PRAME 36-45 KDEALAIAAL]
